Test results reported in the RNAGym collection of RNA variant scans (doi:10.1073/pnas.2313332121).
Variants at the floor of the assay were thinned out.

B1: TPR 5TU (parent)
chain: GGAUCUUCUCGAUCUAACAAAAAAGACAAAUCUGCCACAAAGCUUGAGAGCAUCUUCGGAUGCAGAGGCGGCAGCCUUCGGUGGCGCGAUAGCGCCAACGUUCUCAACUAUGACACGCAAAACGCGUGCUCCGUUGAAUGGAGUUUAUCAUG

Variants of: B1
Assay: polymerase ribozyme fitness, log enrichment relative to wild type (log ratio); higher = more active; in vitro selection for triplet polymerase activity
Procedure, shortened: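 For each subunit of a heterodimeric triplet polymerase ribozyme, a mutant library was built by PCR and transcribed, then taken through a single in vitro selection round in triplicate. Selection involved annealing to a biotinylated primer, the partner subunit and triplets, incubation frozen at −7 °C, gel excision of extended constructs, capture on streptavidin beads and RT-PCR. Genotypes were retained after Illumina sequencing of inputs and outputs only with ≥10 input reads and ≥1 read in each output. Fitness is defined as the logarithm of a genotype's enrichment relative to wild-type enrichment, using inverse-variance-weighted averages across replicates, with the logarithm taken to base 2.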

GGAUCUUCUCGAUCUAACAAAAAAGACAAAUCUGCCACAAAGCUUGAGCGCAUUUUCGGAUGCAGAGGCGGCAGCCUUCGGUGGCGCGAUAGCGCCAACGUUCUCAACUAUGACACGCAAAACGCGUGCUCCGUUGAAUGGAGUUUAUCAUG [A49C C54U] and GGAUCUUCUCGAUCUAACAAAAAAGACAAAUCUGCCACAAAGCUUGAGCGCAUCUUCGGAUGCAGAGGCGGCGGCCUUCGGUGGCGCGAUGGCGCCAACGUUCUCAAUUAUGACACGCCAAACGAGUGCUCCGUUGAAUGGAGUUUAUCAUG [A49C A73G A91G C108U A119C C125A] cannot be ordered by “polymerase ribozyme fitness (log ratio)” value: no more than -4.2 for the first, no more than -4.2 for the second.

GGAUCUUCUCGAUCUAACAAAAAAGACAAAUCUGCCACAAAGCUUGAGCGCCUCUUCGGAUGCAGAGGCGGCAGCCUUCGGUGGCGCGAUUGCGCCAACGUUCUCAACUAUGACACGCAAAACGCGUGCACCGACGAAUGGGGUUUAUCAUG [A49C A52C A91U U130A U134A U135C A142G] and GGAUCUUCUCGAUCUAACAAAAAAGACAAAUCUGCCACAAAGCUUGAGCGCAUCUUCGGAUGCAGAGGAGGCAGCCUUUGGUUGCGCGAUAGCUCCAACGUUCACAACUAUGACACGCAAAACGCGUGCUCCGUUGAAUGGAGUUUAUCAUG [A49C C69A C79U G83U G94U U104A] cannot be ordered by “polymerase ribozyme fitness (log ratio)” value: no more than -4.2 for the first, no more than -4.2 for the second.

GGAUCUUCUCGAUCUAACAAAAAAGACAAAUCUGCCACAAAGCUUGAGCGCAUCUUCGGAUGCAGAGGCGGCAGCCUUCGGUGGCGCGUUACCGCCAACGUUCGCAACUAUGACACGCAAAACGCGGGCUCCGUUGAAUGGGGUUUAUCAUG [A49C A89U G92C U104G U127G A142G] and GGAUCUUCUCGAUCUAACAAAAAAGACAAAUCUGCCACAAAGCUUGAGCGCAUCUUCGGAUGCAGAGGCGGCAGCCUUCGGUGGCGCGAUUGCGACAACGUUCUCAUCUAUGACACGCAAAACGCGUGCUCCGUUGAAUGGAGUUUAUCAUG [A49C A91U C95A A107U] cannot be ordered by “polymerase ribozyme fitness (log ratio)” value: no more than -4.2 for the first, no more than -4.2 for the second.

GGAUCUUCUCGAUCUAACAAAAAAGACAAAUCUGCCACAAAGCUUGAGCGCUUCUUCGGAUGCAGAGGCGGCAGCCUUCGGUGGCGCGAUAGCGCCAACGUUCUCAACUAUGACACGCAAAACGCGUGCUCCGUUGAUUGGAGUUUAUCAUG [A49C A52U A138U] and GGAUCUUCUCGAUCUAACAAAAAAGACAAAUCUGCCACAAAGCUUGAGCGCUUCUUCGGAUGCAGAGGCGGCAGCCUUCGGUGACGCGAUAGCGCCAACGUUCUUAACUAUGACACGCAAAACUCGUGCUCCGUUGAAUGGAGUUUAUCAUG [A49C A52U G84A C105U G124U] cannot be ordered by “polymerase ribozyme fitness (log ratio)” value: no more than -4.2 for the first, no more than -4.2 for the second.

GGAUCUUCUCGAUCUAACAAAAAAGACAAAUCUGCCACAAAGCUUGAGCGUCUCUUCGGAUACAGAGGCAGCAGCCUUCGGUGACGCGAUAGCGCCAACGUUCUCGACUAUGACGCGCAAAACGCGUGCUCCGUUGAAUGGAGUUUAUCAUG [A49C C51U A52C G62A G70A G84A A106G A115G] and GGAUCUUCUCGAUCUAACAAAAAAGACAAAUCUGCCACAAAGCUUGAGCGCAUCUUCGGAUGCAGAGGCGGCAGCCUUCGGUGGCGCGAUAGCGCCGACGUUCUCAACUAUGACACGCAAAACGCGUGCUCCGUUGAAUGGAGUUUACCAUG [A49C A97G U148C] cannot be ordered by “polymerase ribozyme fitness (log ratio)” value: no more than -4.2 for the first, no more than -4.2 for the second.

GGAUCUUCUCGAUCUAACAAAAAAGACAAAUCUGCCACAAAGCUUGAGCGCCUCUUAGGAUGCAGAGGCGGCAGCCUUCGGUGGCGCGAUUGCGCGAACGUUCUCAACUAUAACACUCAAAACGCGUGCUCCGUUGAAUGGACUUUAUCGUG [A49C A52C C57A A91U C96G G112A G117U G143C A150G] and GGAUCUUCUCGAUCUAACAAAAAAGACAAAUCUGCCACAAAGCUUGAGCGCAUCUUCGGAUGCAGAGGCGGAAGCCUUCGGUGGCGCGAUAGCGCCAACGUUCUCAAAUAUGACACGCAAAACGCGUGCUCCGUGGAAUGGAGUUUAUCAUG [A49C C72A C108A U135G] cannot be ordered by “polymerase ribozyme fitness (log ratio)” value: no more than -4.2 for the first, no more than -4.2 for the second.

GGAUCUUCUCGAUCUAACAAAAAAGACAAAUCUGCCACAAAGCUUGAGCGCAUCUUCGGAUGCAGAGGCGGCAGCCUUCGGUGGCGCGAUAGCGCCAGCGUUCUCAACUAUGACACGCAAAACGCGUGCUCCGUUGAAUGGAGUUUAUCAUG [A49C A98G] and GGAUCUUCUCGAUCUAACAAAAAAGACAAAUCUGCCACAAAGCUUGAGCGCGUCUUCCGAUGCAGAGGCGGCAGCCUUCGGUGACGCGAUAGCGCCAACGUUCUCAACUAUGACACGCAAAACGCGUGCUGCCUUGAAUGGAGUAUAUCAUG [A49C A52G G58C G84A C131G G133C U145A] cannot be ordered by “polymerase ribozyme fitness (log ratio)” value: no more than -4.2 for the first, no more than -4.2 for the second.

GGAUCUUCUCGAUCUAACAAAAAAGACAAAUCUGCCACAAAGCUUGAGCGCGUCUUCGGAUGCAGAGGCGGAAGCCUUCGGUGGCGCGAUAGCGCCAACGUUCUCAACUAUGACACGCAAAACGCGUGCUCCGUUGAAUGGAGUUUAUCAUG [A49C A52G C72A] and GGAUCUUCUCGAUCUAACAAAAAAGACAAAUCUGCCACAAAGCUUGAGCGCAUCUUCGGAUGCAGCGGCGGCAGCCUUCGCUUGCGCGAUAGCGCCAAUGGUCUCAAUUAUGACACGCAAAACGCGUGCUCCGUUGAAUGGAGUUUAUCAUG [A49C A66C G81C G83U C99U U101G C108U] cannot be ordered by “polymerase ribozyme fitness (log ratio)” value: no more than -4.2 for the first, no more than -4.2 for the second.

First: GGAUCUUCUCGAUCUAACAAAAAAGACAAAUCUGCCACAAAGCUUGAGCGCAUCUUUGGAUGCAGAGGCGGCAGCCUUCGGUGGCGCGAUAGCGCCAACGGUCUCAACUAUGACACGCAAAACGCGUGCUCCGUUGAAUGGAGUUUAUCAUG [A49C C57U U101G]
Second: GGAUCUUCUCGAUCUAACAAAAAAGACAAAUCUGCCACAAAGCUUGAGCGCAUCUUCGGAUGCAGAGGCGGCAGGCUUCGGUUGCGCGAUAGCGCCAACGUUCUCAACUAUGACACGCAAAACGCGUGCUCCGUUGAAUGAAGUUAAUCAUG [A49C C75G G83U G141A U146A]
The “polymerase ribozyme fitness (log ratio)” value of the first is higher: -2.69 for the first, no more than -4.2 for the second.

With GGAUCUUCUCGAUCUAACAAAAAAGACAAAUCUGCCACAAAGCUUGAGCGCAUCUUCGGAUGCAGAGGCGGCAGCCUUCGGUGGCGCGAUAGCGCCAACGUUCUCAACUAUGACACGCUAAACGCGUGCUCCGUUGAAUGGAGUUUAUCAUG [A49C A119U] the “polymerase ribozyme fitness (log ratio)” value was no more than -4.2.
